Source: patent US20220056123A1, “USE OF IL-1BETA BINDING ANTIBODIES” (NOVARTIS AG, priority 2018, published 2022)

Assays:
[1] = system: MDA-MB-231Luc2-TdTomato cells; experiment: Spontaneous human breast cancer metastasis to human bone implants; format: in vivo, NOD SCID mice
Description: FIG. 4. Pharmacological blockade of IL-1B inhibits spontaneous metastasis to human bone in vivo. Female NOD-SCID mice bearing two 0.5 cm^3 pieces of human femoral bone received intra-mammary injections of MDA-MB-231Luc2-TdTomato cells. […] All animals were culled 35 days following tumour cell injection. Effects on bone metastases (a) were assessed in vivo and immediately post-mortem by luciferase imaging and confirmed ex vivo on histological sections. Data are shown as numbers of photons per second emitted 2 minutes following sub-cutaneous injection of D-luciferin. Effects on numbers of tumour cells detected in the circulation are shown in (b). *=P<0.01. **=P<0.001. ***=P<0.0001.
To model human breast cancer metastasis to human bone implants two human bone discs were implanted subcutaneously into 10-week old female NOD SCID mice (n=10/group) under isofluorane anaesthetic. Mice received an injection of 0.003 mg vetergesic and Septrin was added to the drinking water for 1 week following bone implantation. Mice were left for 4 weeks before injecting 1×10^5 MDA-MB-231 Luc2-TdTomato, MCF7 Luc2 or T47D Luc2 cells in 20% Martigel/79% PBS/1% toluene blue into the two hind mammary fat pads. Primary tumor growth and development of metastases was monitored weekly using an IVIS […] system (Caliper Life Sciences) following sub-cutaneous injection of 30 mg/ml D-luciferin (Invitrogen). On termination of experiments mammary tumors, circulating tumor cells, serum and bone metastases were resected. RNA was processed for downstream analysis by real time PCR, and cell lysates were taken for protein analysis and whole tissue for histology as previously described (Nutter et al., 2014; Ottewell et al., 2014a). […] Tumor cells, serum, and bone were subsequently resected for downstream analysis. Bone metastases were investigated following injection of 5×10^5 MDA-MB-231 GFP (control), MDA-MB-231-IV, MDA-MB-231-IL-1B-positive or MDA-MB-231-IL-1R1-positive cells into the lateral tail vein of 6 to 8-week old female BALB/c nude mice (n=12/group). Tumor growth in bones and lungs was monitored weekly by GFP imaging in live animals. Mice were culled 28 days after tumor cell injection at which timepoint hind limbs, lungs and serum were resected and processed for microcomputed tomography imaging (pCT), histology and ELISA analysis of bone turnover markers and circulating cytokines as described (Holen et al., 2016).
Whole blood was centrifuged at 10,000×g for 5 minutes and the serum removed for ELISA assays. The cell pellet was re-suspended in 5 ml of FSM lysis solution (Sigma-Aldrich, Pool, UK) to lyse red blood cells. Remaining cells were re-pelleted, washed 3× in PBS and re-suspended in a solution of PBS/10% FCS. Samples from 10 mice per group were pooled prior to isolation of TdTomato positive tumor cells using a MoFlow High performance cell sorter (Beckman Coulter, Cambridge UK) with the […] laser line from a Coherent I-90C tenable argon ion (Coherent, Santa Clara, Calif.). TdTomato fluorescence was detected by a 555LP dichroic long pass and a 580/30 nm band pass filter. Acquisition and analysis of cells was performed using Summit 4.3 software. After sorting, cells were immediately placed in RNA protect cell reagent (Ambion, Paisley, Renfrew, UK) and stored at −80° C. before RNA extraction. For counting numbers of circulating tumor cells, TdTomato fluorescence was detected using a 561 nm laser and an YL1-A filter (585/16 emission filter). Acquisition and analysis of cells was performed using Attune N×T software.

[2] = system: patients with atherosclerosis who had had a myocardial infarction; conditions: compared with placebo, median follow-up 3.7 years, cited from earlier work
[3] = system: locally advanced or metastatic non-small cell lung cancer; parameters: species or system human; conditions: in vivo
Text: A Randomized, Double-Blind Phase III Study of Pembrolizumab+Platinum-based Chemotherapy with or without Canakinumab as First Line Therapy for Locally Advanced or Metastatic Non-squamous and Squamous Non-small Cell Lung Cancer Subjects The study population includes adult patients with first-line locally advanced stage IIIB (not eligible for definitive chemo-radiation therapy) or stage IV metastatic non-small cell lung cancer (NSCLC), without EGFR mutations or ALK translocation. Only patients who have not previously been treated with any systemic anti-cancer therapy are included, with the exception of neo-adjuvant or adjuvant therapy (if relapse has occurred more than 12 months from the end of that therapy). In addition, subjects should be without known B-RAF mutation or ROS-1 genetic aberrations.
The non-randomized safety run-in portion of the study will be done with canakinumab in combination with pembrolizumab and three platinum-based doublet chemotherapies: carboplatin+pemetrexed (patients with non-squamous tumors), cisplatin+pemetrexed (patients with non-squamous tumors), and carboplatin+paclitaxel (patients with either squamous or non-squamous tumor). Non-squamous tumor histology subjects who receive paclitaxel-carboplatin with pembrolizumab in the safety-run-in and achieve stable disease (SD) or better will receive pemetrexed maintenance after completing induction. […] The secondary objectives are to characterize safety and tolerability, pharmacokinetics, immunogenicity, and to assess the preliminary clinical anti-tumor activity. The analysis to determine the recommended phase III dose regimen (RP3R) will be conducted when at least 6 evaluable patients in each of the 3 treatment cohorts have been observed for dose limiting toxicity (DLT) for at least 42 days at the starting dose level to establish the RP3R.
At data cut-off, 6 patients (3 in A, 2 in B and 1 in C) of the 30 treated patients, discontinued the study treatment. The primary reason for treatment discontinuation was PD (3 patients in A and 1 patient each in B and C)

## canakinumab: high-affinity, fully human monoclonal antibody of the IgG1/k to interleukin-1β
[1]; IL-1Ra 1 mg/kg daily, canakinumab sc every 14 days, from 7 days after tumor cell injection, control 7 out of 10
  mice with metastasis detected in human bone implants: 1 out of 10
[1]; luciferase imaging, vs control group
  size of bone metastases: smaller than those detected in the control group
[1]; placebo 108 tumor cells/ml
  tumor cells counted in whole blood: 3 tumor cells/ml
[2]; dose-dependent (50, 150, 300 mg sc every 3 months)
  reductions in concentrations of hsCRP: 26-41%
[2]; dose-dependent
  reductions in concentrations of interleukin 6: 25-43%
[3]
  AEs leading to discontinuation of one of the study drugs: 3 patients
  AEs leading to dose interruption: decreased neutrophil count: 3 patients
  AEs leading to dose interruption: decreased white blood cell count: 1 patient
  AEs leading to dose interruption: neutropenia: 1 patient
  AEs leading to dose reduction: myalgia: 1 patients
  AEs leading to dose reduction: peripheral neuropathy: 2 patients
  Grade 5 adverse events: No Grade 5 adverse events were observed
  patients with dose limiting toxicity (DLT): 1 patient
  patients with grade 3 AEs: 13 patients
  patients with grade 4 AE: 1 patient
